Biological target: the molecule itself
Test: crystal structure; Ca2+-bound state: protein purified with 1 mM CaCl2 in 50 mM Tris-HCl pH 8.0, 250 mM NaCl; crystals in 21% PEG 550 MME, 50 mM MgAc2, 100 mM Tris pH 8.2, 20 °C; space group I4, one subunit per asymmetric unit, tetramer by crystallographic fourfold; 1.6 Å

B1: LjCASTOR soluble domain (residues 312-853) (domain or fragment, Lotus japonicus, UniProt Q5H8A6 312-853, looked up)
chain: KGKSEVVEQNHTLILGWSDKLGSLLNQLAIANESLGGGTIAVMAERDKEDMELDIGKMEFDFKGTSVICRSGSPLILADLKKVSVSKARTIIVLAEDGNADQSDARALRTVLSLTGVKEGLRGHIVVEMSDLDNEVLVKLVGGDLVETVVAHDVIGRLMIQCARQPGLAQIWEDILGFENCEFYIKRWPQLDGMLFEDVLISFPAAIPCGIKVASYGGKIILNPDDSYVLQEGDEVLVIAEDDDTYAPAPLPMVRRGSLPKDFVYPKSPERILFCGWRRDMEDMITVLDASLAPDSELWMFNDVPEKEREKKLIDGGLDISRLENISLVNREGNAVIRRHLESLPLESFDSILILADESVEDSAIQADSRSLATLLLIRDIQARRLPYVAMASQTQGGNFSKGSWIGEMKQASDKTVIISEILDPRTKNLLSMSKISDYVLSNELVSMALAMVAEDRQINDVLEELFAEEGNEMHIRQADIYLREGEEMSFYEIMLRARQRREILIGYRLANAERAVINPPAKTGRRKWSLKDVFVVITEKE
notes: CASTOR ion channel from Lotus japonicus, soluble domain after the transmembrane region, residues 312-853; two tandem RCK domains (RCK1 320-552, linker 553-580, RCK2 581-853); Cloned into pQE60 with a C-terminal hexahistidine tag; no removal of the tag is described; A selenomethionine-substituted form was used for phasing only; Residues 699-726 have no electron density; also called LjCASTOR RCK …
stoichiometry N: 4
